Consider five molecules from article PMC4300205, “Human Cerberus Prevents Nodal-Receptor Binding, Inhibits Nodal Signaling, and Suppresses Nodal-Mediated Phenotypes” (PLoS ONE, 2015).

The chains are these.
B1: human ACTRIIB-hIgg-Fc (Fc fusion, UniProt Q13705 19-120, looked up)
chain: SGRGEAETRECIYYNANWELERTNQSGLERCEGEQDKRLHCYASWRNSSGTIELVKKGCWLDDFNCYDRQECVATEENPQVYFCCCEGNFCNERFTHLPEAG
notes: signal peptide in the construct; extracellular domain of human ActRIIB (1-120), joined to human IgG1 Fc by a 22 amino acid linker with a TEV site, a glycine/serine rich region and a FLAG-tag; Synthetic gene from GeneArt; also called ACTRIIB-Fc; source: CHO cells, purified from conditioned medium (Protein A, SEC)
B2: recombinant human Nodal (ligand, UniProt Q96S42 238-347, looked up)
chain: HHLPDRSQLCRKVKFQVDFNLIGWGSWIIYPKQYNAYRCEGECPNPVGEEFHPTNHAYIQSLLKRYQPHRVPSTCCAPVKTKPLSMLYVDNGRVLLDHHKDMIVEECGCL
notes: Nodal, human, recombinant (RnD Systems); source: bought: RnD Systems
B3: human ALK4-hIgg-Fc (Fc fusion, UniProt P36896 24-110, looked up)
chain: SGPRGVQALLCACTSCLQANYTCETDGACMVSIFNLDGMEHHVRTCIPKVELVPAGKPFYCLSSEDLRNTHCCYTDYCNRIDLRVPS
notes: signal peptide in the construct; extracellular domain of human ALK4 (1-110), joined to human IgG1 Fc by a 22 amino acid linker with a TEV site, a glycine/serine rich region and a FLAG-tag; Synthetic gene from GeneArt; also called ALK4-Fc; source: CHO cells, purified
B4: Recombinant GDF-11 (ligand, human, UniProt O95390 299-407, looked up)
chain: NLGLDCDEHSSESRCCRYPLTVDFEAFGWDWIIAPKRYKANYCSGQCEYMFMQKYPHTHLVQQANPRGSAGPCCTPTKMSPINMLYFNDKQQIIYGKIPGMVVDRCGCS
notes: GDF-11, recombinant; source: bought: R&D Biosystems or Life Technologies
B5: Recombinant BMP-2, P12643 283-396 (ligand)
chain: QAKHKQRKRLKSSCKRHPLYVDFSDVGWNDWIVAPPGYHAFYCHGECPFPLADHLNSTNHAIVQTLVNSVNSKIPKACCVPTELSAISMLYLDENEKVVLKNYQDMVVEGCGCR

What all share (assay): SPR; Biacore 2000; 200-300 RU of Fc fusion captured by anti-human IgG (Fc) antibody on a CM5 chip; concentration series of ligand injected at 50 ul/min; 25 C; HBS-EPS (0.01 M HEPES, 0.5 M NaCl, 3 mM EDTA, 0.005% Tween 20, pH 7.4); 1:1 Langmuir model with mass transport; Kd = kd/ka
The target of one assay is T1, Recombinant Activin A (human, UniProt P08476 311-426).
T1 construct: Activin A (inhibin beta A chain), recombinant; source: bought: R&D Biosystems or Life Technologies; also produced in-house
T1 sequence (looked up): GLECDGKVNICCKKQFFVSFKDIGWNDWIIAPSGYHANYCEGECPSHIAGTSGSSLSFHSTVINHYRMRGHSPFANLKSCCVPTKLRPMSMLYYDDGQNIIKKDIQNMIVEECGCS
The following applies: both partners purified.

The assay “recombinant human Nodal” deals with B2. The following applies: both partners purified.
A further assay addresses T2, BMPRII-Fc (human, UniProt Q13873 27-150).
T2 construct: type II receptor BMPRII, human, extracellular domain-Fc fusion; Bought protein; source: bought: R&D Biosystems or Life Technologies
T2 sequence (looked up): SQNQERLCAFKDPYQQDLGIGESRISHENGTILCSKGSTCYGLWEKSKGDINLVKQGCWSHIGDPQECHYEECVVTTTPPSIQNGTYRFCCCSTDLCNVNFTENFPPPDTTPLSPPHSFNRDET
The following applies: both partners purified.

Assay [1] concerns the target T3, Human Cerberus-hIgg-Fc (human, UniProt O95813 18-267).
T3 construct: signal peptide in the construct; also called Cerberus-Fc; full-length Cerberus-Fc; source: CHO cells, purified from conditioned medium (Protein A, SEC); not shown: Fc (human IgG1), C-terminal, kept
T3 sequence (looked up): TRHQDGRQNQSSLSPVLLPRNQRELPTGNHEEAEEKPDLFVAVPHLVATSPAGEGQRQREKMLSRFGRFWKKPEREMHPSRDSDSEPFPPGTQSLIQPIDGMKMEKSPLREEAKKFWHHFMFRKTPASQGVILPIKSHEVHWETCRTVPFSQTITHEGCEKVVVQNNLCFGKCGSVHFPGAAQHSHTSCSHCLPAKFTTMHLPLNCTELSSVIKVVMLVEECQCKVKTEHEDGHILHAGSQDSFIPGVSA
The following applies: both partners purified.

A further assay deals with T4, human Cryptic-hIgg-Fc (human, UniProt P0CG37 26-158).
T4 construct: signal peptide in the construct; human Cryptic (1-158), joined to human IgG1 Fc by a 22 amino acid linker with a TEV site, a glycine/serine rich region and a FLAG-tag; Synthetic gene from GeneArt; also called Cryptic-Fc; source: CHO cells, purified from conditioned medium (Protein A, SEC)
T4 sequence (P0CG37 26-158): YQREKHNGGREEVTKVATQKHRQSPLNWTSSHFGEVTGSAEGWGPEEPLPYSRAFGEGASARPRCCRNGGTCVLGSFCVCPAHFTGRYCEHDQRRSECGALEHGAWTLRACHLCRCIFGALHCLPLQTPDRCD
The following applies: both partners purified.

The next assay concerns the target T5, Cripto-1-Fc (human, UniProt P13385 31-151).
T5 construct: signal peptide in the construct; Cripto1 (1-151), amplicon from cDNA (Thermo Scientific) fused to the hIgg1-Fc domain by PCR; source: CHO cells, purified from conditioned medium (Protein A, SEC)
T5 sequence (looked up): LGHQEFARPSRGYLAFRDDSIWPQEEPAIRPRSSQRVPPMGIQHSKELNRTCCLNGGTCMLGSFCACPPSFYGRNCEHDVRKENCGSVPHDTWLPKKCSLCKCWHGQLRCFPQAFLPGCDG
The following applies: both partners purified.

Assay [2] deals with T3, Human Cerberus-hIgg-Fc. The following applies: both partners purified. The source holds these as a separate data set.
Assay [3] addresses T6, Human Cerberus-hIgg-Fc (human), O95813.
T6 chain: T3 sequence (looked up)
The following applies: remark: other sources report otherwise.

For the molecule B1, in the assay with Recombinant Activin A, the Kd turned out to be 0.018 nM, the koff amounted to 2.7e-05 s⁻¹ and the kon came to 1.5e+06 M⁻¹ s⁻¹. Also, in the assay with recombinant human Nodal, the Kd was around 10 nM, the koff was around 0.00049 s⁻¹ and the kon is around 49000 M⁻¹ s⁻¹.

As to B2, the Kd turned out to be 0.149 nM with BMPRII-Fc; 1.1 nM with Human Cerberus-hIgg-Fc [1]; 2000 nM with human Cryptic-hIgg-Fc; 16 nM with Cripto-1-Fc; 1 nM with Human Cerberus-hIgg-Fc [2]. Further, the off-rate (koff) in the assay with BMPRII-Fc came out at 4.6e-05 s⁻¹; with Human Cerberus-hIgg-Fc [1], 1.4e-05 s⁻¹; in the assay with human Cryptic-hIgg-Fc it was 0.001 s⁻¹; with Cripto-1-Fc it was 0.00026 s⁻¹. The association rate constant (kon) with BMPRII-Fc stood at 310000 M⁻¹ s⁻¹; in the assay with Human Cerberus-hIgg-Fc [1] it was 13000 M⁻¹ s⁻¹; in the assay with human Cryptic-hIgg-Fc it was 550 M⁻¹ s⁻¹; with Cripto-1-Fc, 10000 M⁻¹ s⁻¹.

Consider B3, for which, in the assay with Recombinant Activin A, the dissociation constant Kd was determined as 2.4 nM, the koff turned out to be 0.00048 s⁻¹ and the kon turned out to be 200000 M⁻¹ s⁻¹. In addition, in the assay with recombinant human Nodal, the Kd is around 15 nM, the koff is around 0.00032 s⁻¹ and the on-rate (kon) is around 46000 M⁻¹ s⁻¹.

Regarding B4, in the assay with Human Cerberus-hIgg-Fc [1], the Kd came out at 5800 nM, the koff came out at 0.014 s⁻¹ and the kon is 1200 M⁻¹ s⁻¹.

In assay [3], B5 registered a Kd of 3000 nM, a koff of 0.072 s⁻¹ and a kon of 24000 M⁻¹ s⁻¹.

Usually Kd stands for a measure of binding affinity in units of concentration. As usually defined, the koff is the first-order rate constant of dissociation. A word on the kon: it is the second-order rate constant of association.
